Measurements reported in patent publication US10487307B2, “Culture method for pluripotent stem cells” (FUJIFILM CORPORATION, priority 2013, dated 2019).

Columns and labels:
Format in all cases: cell-based, human
iPS cells [1] = experiment: Example 5: cell growth on pretreated RCP-11 surface
Description: Meanwhile, in the same manner as in <Cell growth property evaluation 1> of Example 3, iPS cells were collected and suspended in Essential 8. The iPS cells were then seeded into the respective wells, to which 2-mercaptoethanol was added so as to accelerate the desorption of RCP-11, at a cell density of 10,000 cells/well, thereby starting culture.
After the cells were cultured for 72 hours, the number of cells was quantified in the same manner as in <Cell growth property evaluation 1> of Example 3. In the table, each of the residual rate of RCP-11 adsorbed and the cell growth rate is expressed as a ratio calculated by regarding the residual rate of the polypeptide adsorbed and the cell growth rate in the case where the pretreatment with PBS is performed as being 100%.

iPS cells [2] = experiment: Growth evaluation, growth curves over 8 days
Description: The iPS cells collected in the same manner as in <Cell adhesiveness evaluation 1> were seeded into a 96-well plate, onto which RCP-1, RCP-21, and natural human vitronectin were adsorbed, at a ratio of 250 cells/well and cultured for 8 days in a 5% CO2 incubator at 37° C. The number of adhesive cells after different days of culture was measured in the same manner as in <Cell adhesiveness evaluation 1>, thereby obtaining growth curves. […] In FIG. 2, a black rhombus indicates a case using RCP-1, and a black square indicates a case using RCP-21.
From the increase and decrease in the obtained number of cells, the doubling time was calculated. As a result, it was confirmed that it takes 46.4±2.1 hours for the number of cells to be doubled in a case where RCP-1 is used, and 67.7±2.1 hours in a case where RCP-21 is used.

iPS cells [3] = experiment: Cell adhesiveness evaluation 3 (RCP-1 added amount); details: for Cell adhesion rate (%): natural vitronectin 130 pmol/cm^2 = 100%, n=3
Description: The cell adhesiveness was evaluated in the same manner as in <Cell adhesiveness evaluation 1>, except that RCP-1 was used after the concentration thereof was adjusted to 125 pmol/cm^2 to 1,000 pmol/cm^2 by using PBS. In Table 10, the cell adhesion rate is expressed as a ratio calculated by regarding a cell adhesion rate with respect to the cell culture surface, onto which natural vitronectin is adsorbed at a concentration of 130 pmol/cm^2, as being 100%. n=3.

B1: RCP-11: recombinant polypeptide for culture, SEQ ID NO: 25; vitronectin positions 1-55, 269-277, 295-341, 342-373, C274S (protein)
chain: MDQESCKGRCTEGFNVDKKCQCDELCSYYQSCCTDYTAECKPQVTRGDVFTMPEDESQEESEGSEDIFELLFWGRTSAGTRQPQFISRDWHGVPGQVDAAMAGRIYISGMAPRPSLAKKQRFRHRNRKGYRSQRGHSRGRNQN
modifications: Vitronectin-derived Recombinant Protein (RCP-11)
notes: vitronectin positions 1-55, 269-277, 295-341, 342-373, C274S
- Cell growth rate (%) (iPS cells [1]; pretreatment 2-Mercaptoethanol 8.96 μM (0.00007% by mass), Essential 8, 72 hours, PBS pretreatment = 100%): 85.2%
- Cell growth rate (%) (iPS cells [1]; pretreatment 2-Mercaptoethanol 895.94 μM (0.007% by mass), Essential 8, 72 hours, PBS pretreatment = 100%): 70.7%
- Cell growth rate (%) (iPS cells [1]; pretreatment 2-Mercaptoethanol 89.6 mM (0.7% by mass), Essential 8, 10,000 cells/well, 72 hours, PBS pretreatment = 100%): 38.0%
- Cell growth rate (%) (iPS cells [1]; pretreatment PBS, Essential 8, 72 hours, this = 100%): 100%

B2: RCP-1: recombinant polypeptide for culture, SEQ ID NO: 15; human vitronectin positions 1-55 and 269-459 with N-terminal methionine (protein)
chain: MDQESCKGRCTEGFNVDKKCQCDELCSYYQSCCTDYTAECKPQVTRGDVFTMPEDEPSQEECEGSSLSAVFEHFAMMQRDSWEDIFELLFWGRTSAGTRQPQFISRDWHGVPGQVDAAMAGRIYISGMAPRPSLAKKQRFRHRNRKGYRSQRGHSRGRNQNSRRPSRATWLSLFSSEESNLGANNYDDYRMDWLVPATCEPIQSVFFFSGDKYYRVNLRTRRVDTVDPPYPRSIAQYWLGCPAPGHL
modifications: Vitronectin-derived Recombinant Protein (RCP-1)
- doubling time (iPS cells [2]; 250 cells/well, cultured for 8 days): 46.4 ± 2.1 h
- cell growth properties (iPS cells [2]; FIG. 2): higher cell growth properties compared to RCP-21
- Cell adhesion rate (%) (iPS cells [3]; added amount 125 pmol/cm^2): 90.3 ± 25.3%
- Cell adhesion rate (%) (iPS cells [3]; added amount 250 pmol/cm^2): 89.2 ± 10.6%
- Cell adhesion rate (%) (iPS cells [3]; added amount 500 pmol/cm^2): 108.8 ± 23.0%
- Cell adhesion rate (%) (iPS cells [3]; added amount 1000 pmol/cm^2): 98.5 ± 17.2%
- adhesiveness of iPS cells (iPS cells [3]; added amount equal to or greater than 125 pmol/cm^2): equivalent to the cell adhesion rate of the natural vitronection
